Assay results reported in patent US20230322924A1 (Janssen / Centocor, published 2023).
Substitutions are numbered along the chain they refer to.

B1: C33B915 (antibody, V domains shown)
VH: EVQLVESGGGLVQPGRSLRLSCAASGFTFDDYAMHWVRQVPGEGLEWVSGISWNGGDMVYADSVKGRFTISRDNAKNSLYLQMNSLRPEDTALYYCVKDMPYFDFLTGSDYYYYGMDVWGQGTTVTVSS
VL: SYELTQPPSVSVSPGQTASITCSGDNLGNEHVCWYHQKPGQSPVLVIYQNNKRPSGIPERFSGSNSGNTATLSISGTQATDEADYYCQAWDSTTAVFGGGTKLTVL
notes: OMNIMouse-derived anti-CD33 mAb; same V regions as C33B907; also called C33H255/C33L121; C33F553
B2: C33B914 (antibody, V domains shown)
VH: QVQLVESGGGVVQPGRSLRLSCAASGFTFSYYGMHWVRQAPDKGLEWVAVIWFDGNNKYYADSVKGRFTISRDNSKNTLYLQMNSLRAEDTAVYYCARDRELLFDYWGQGTLVTVSS
VL: SYELTQPPSVSVSPGQTASITCSGDELGDMYACWYQQKPGQSPLVVIYQDSKRPSGIPERFSGSNSGNTATLTISGTQAMDEAAYYCQTWDTRIAVFGGGTNLTVL
notes: OMNIMouse-derived anti-CD33 mAb; same V regions as C33B906; also called C33H254/C33L120; C33F552
B3: C33B916 (antibody, V domains shown)
VH: B2 VH with A24T, Y31N, D42G, F53Y, D54V, N56S, N57H, R100G, E101S, L103C
VL: SYELTQPPSVSVSPGQTANISCSGVTLGYNYAYWYQQKPGQSPILVISQDTQRPSGIPERFSGSNSGNTATLTISGTQAMDEAAYYCQAWDITTVLFGGGTKLTVL
notes: OMNIMouse-derived anti-CD33 mAb; same V regions as C33B908; also called C33H256/C33L122; C33F554
B4: BLW-3B4 (antibody, V domains shown)
VH: QVQLQQSGPGLVKPSQTLSLTCAISGDSVFNNNAAWSWIRQSPSRGLEWLGRTYYRSKWLYDYAVSVKSRITVNPDTSRNQFTLQLNSVTPEDTALYYCVRGYSSSFDYWGQGTLVTVSS
VL: QSALTQPASVSGSPGQSITISCTGTSRDIGTYKFVSWYQQHPDKAPKVLLYEVSKRPSGVSSRFSGSKSGNTASLTISGLQAEDQADYHCCSYAGSGTLLFGGGTKLTVL
notes: OmniRat hybridoma supernatant: human V regions on rat constant regions; also called V regions cloned as CD3B313 (CD3H218/CD3L125)
B5: BLX-1F8 (antibody, V domains shown)
VH: B4 VH with N87K, V100S
VL: B4 VL with R27S, G70D
notes: OmniRat hybridoma supernatant: human V regions on rat constant regions; also called V regions cloned as CD3B314 (CD3H220/CD3L126)
B6: BLX-2E9 (antibody, V domains shown)
VH: B4 VH with A34G, V100A
VL: B4 VL with R27S, D28N
notes: OmniRat hybridoma supernatant: human V regions on rat constant regions; also called V regions cloned as CD3B315 (CD3H221/CD3L124)
B7: BLX-3G8 (antibody, V domains shown)
VH: B4 VH with S37T, N87K, V100S
VL: B4 VL with R27S, D28N
notes: OmniRat hybridoma supernatant: human V regions on rat constant regions; also called V regions cloned as CD3B317 (CD3H223/CD3L124)
B8: BLW-2E6 (antibody, V domains shown)
VH: B4 VH with G10R, K13R, V100A
VL: B4 VL with R27S, D28N
notes: OmniRat hybridoma supernatant: human V regions on rat constant regions; also called V regions cloned as CD3B312 (CD3H219/CD3L124)
B9: BLW-2B4 (antibody, V domains shown)
VH: B4 VH
VL: B4 VL with S54N
notes: OmniRat hybridoma supernatant: human V regions on rat constant regions; also called V regions cloned as CD3B311 (CD3H218/CD3L123)
B10: BLX-3F4 (antibody, V domains shown)
VH: B4 VH with Q3R, S66T, N87T, V100A
VL: B4 VL with R27S, D28N
notes: OmniRat hybridoma supernatant: human V regions on rat constant regions; also called V regions cloned as CD3B316 (CD3H222/CD3L124)

Legend:
Human CD33 full length = target: T1, Human CD33 full length (human, UniProt P20138 18-364); test: flow cytometry on HEK293F cells expressing human CD33
T1 construct: also called huCD33
Method: (§1) The purified antibodies were assessed for binding to stably transfected HEK293F cells expressing human CD33 or cyno CD33 (generation described above) along with the parental HEK293F as negative control. Cells were harvested from tissue culture flasks using non-enzymatic dissociation buffer (Thermo Scientific). The flasks were rinsed twice with PBS and dissociation buffer was added to the flask, and the flask was incubated for 10 minutes at 37° C. until the cells became non-adherent. The cells were centrifuged at 300 g for 5 minutes and resuspended at 1.0×10⁶ cells/ml in staining buffer (Becton Dickinson; Franklin Lakes, NJ). 50,000 cells/well of each cell type was plated in 50 μl of staining buffer in round bottom plates (Becton Dickinson). […] 100 μl staining buffer was added to all wells of each plate, the plates were spun at 300 g for 5 min, the buffer was removed, 200 μl staining buffer was added to all wells of each plate, the plates were spun at 300 g for 5 min, and the buffer was removed. 50 μl of 2 μg/ml of Goat-anti-human Fc AF647 secondary antibody (Jackson Immunoresearch; West Grove, PA) was added to all wells of the plates, and the plates were incubated for 30 min at 4° C. 100 μl staining buffer was added to all wells of the plates, the plates were spun at 300 g for 5 min, and the buffer was removed. 200 μl running buffer (running buffer is Staining buffer, 1 mM EDTA, 0.1% Pluronic Acid) was added to all wells of the plates, the plates were spun at 300 g for 5 min, and the buffer was removed. 30 μl running buffer containing Sytox Green live/dead dye (ThermoFisher) was added to all wells with cells and the plates were read on an iQue IntelliCyt flow cytometer. Cells were gated on forward vs. side scatter to eliminate debris, then on singlets and then on live cells which excluded the Sytox stain. Antibody binding was assessed by the mean fluorescence intensity in the AF647 channel.
(§2) The OmniMouse panel (8 mAbs total) was generated separately and characterized further for binding to cells.

Human CD33 ECD-HSA = target: T2, Human CD33 ECD-HSA (human); test: ProteOn SPR, mAb captured on anti-human Fc, antigen as analyte
T2 construct: CD33 ECD fused at the C-terminus to monomeric HSA (C58S) and a six-histidine tag; also called C33W2; huCD33 ECD-HSA
Method: (§3) The panel of mAbs was then further characterized for full affinity analysis as well as epitope binning. The binding of anti-CD33 mAbs to recombinant human CD33 ECD-HSA (C33W2) and cyno CD33 ECD-HSA (C33W1) was measured by ProteOn SPR (Bio-Rad). […] Different mAbs were captured on the anti-human Fc IgG surface at 0.25 or 0.5 μg/ml (160-300 RU) in vertical ligand orientation, with the 6th ligand channel as no ligand surface control. Human and cyno CD33-HSA proteins at 0.3 μM concentration in 3-fold dilution series of 5 concentrations flew in as analyte to bind to captured mAbs in the horizontal orientation. A buffer sample was also injected in the 6th channel to monitor the dissociation of captured mAb and baseline stability. […] The raw biding data were processed by double referencing after subtracting the response data from: 1) the inter-spot to correct for the non-specific interactions between the Ag and the empty chip surface; 2) the buffer channel to correct for baseline drifting due to the dissociation of captured mAb surface over time. The processed data at all antigen concentrations for each mAb were globally fit to a 1:1 simple Langmuir binding model to extract estimates of the kinetic (kₒₙ, koff) and affinity (Kd) constants.

Cyno CD33 ECD-HSA = target: T3, Cyno CD33 ECD-HSA (cynomolgus monkey); test: as above
T3 construct: Cyno CD33 ECD fused to HSA and a six-histidine tag; also called C33W1
Method: as §3

Cyno CD33 full length = target: T4, Cyno CD33 full length (cynomolgus monkey); test: flow cytometry on HEK293F cells expressing cyno CD33
T4 construct: also called cyCD33
Method: as §1, §2

[1] = target: T5, human CD3 on human T cells (human, UniProt P07766 23-207); test: flow cytometry, Jurkat CD3+ (E6-1)
T5 construct: Native TCR-CD3 complex on cells; also called primary human T cells; human pan T cells

[2] = target: T6, human CD3e/d complex on cells transiently transfected with pOPT-CD3e/d-hum-mix (human, UniProt P07766 23-126; P04234 22-171); test: CELISA, hybridoma supernatant
T6 construct: Tagged screening constructs
Method: (§4) Hybridoma supernatants from fusions BLW (with magnetic bead depletion of lymphocytes) and BLX (without magnetic bead depletion of lymphocytes) were analyzed a) by a cell-based ELISA (CELISA) on cells transiently transfected with human and cynomolgus cDNA cloned into screening vectors: pOPT-CD3e-hum-epsilon-TCE.OMT+pOPT-CD3d-hum-delta.OMT, 1:1 (pOPT-CD3e/d-hum-mix) and pcDNA3.1-CD3e-cyn-[…]+pcDNA3.1-CD3d-cyn-delta, 1:1 (pcDNA3.1-CD3e/d-cyn-mix). For CELISA negative control, non-transfected mammalian cells were incubated with hybridoma supernatants and detected with the secondary Bethyl antibody. For a CELISA transfection control, mammalian cells, transfected with the constructs described above, were detected with anti-tag antibody.

[3] = target: T7, cynomolgus CD3e/d complex on cells transiently transfected with pcDNA3.1-CD3e/d-cyn-mix (cynomolgus, UniProt Q95LI5 22-198; Q95LI8 22-171); test: CELISA, hybridoma supernatant
T7 construct: Tagged screening constructs
Method: as §4

T7 sequence (Q95LI5 22-198 limits assumed, chain 1 of 2): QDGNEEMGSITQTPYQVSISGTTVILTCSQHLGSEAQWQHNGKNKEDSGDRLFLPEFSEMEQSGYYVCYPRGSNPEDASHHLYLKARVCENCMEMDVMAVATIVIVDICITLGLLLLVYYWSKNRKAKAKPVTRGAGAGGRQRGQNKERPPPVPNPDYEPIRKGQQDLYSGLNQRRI
T7 sequence (Q95LI8 22-171 limits assumed, chain 2 of 2): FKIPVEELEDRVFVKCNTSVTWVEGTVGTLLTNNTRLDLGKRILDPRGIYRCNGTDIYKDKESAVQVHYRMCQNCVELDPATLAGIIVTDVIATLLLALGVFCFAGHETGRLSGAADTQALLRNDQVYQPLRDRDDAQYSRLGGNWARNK
T5 sequence (P07766 23-207 limits assumed): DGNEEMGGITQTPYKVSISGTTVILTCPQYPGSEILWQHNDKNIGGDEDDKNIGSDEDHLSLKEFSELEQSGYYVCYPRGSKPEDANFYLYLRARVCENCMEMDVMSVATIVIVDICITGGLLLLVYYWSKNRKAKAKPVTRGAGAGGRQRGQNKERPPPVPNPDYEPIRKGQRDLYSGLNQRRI
T1 sequence (P20138 18-364 limits assumed): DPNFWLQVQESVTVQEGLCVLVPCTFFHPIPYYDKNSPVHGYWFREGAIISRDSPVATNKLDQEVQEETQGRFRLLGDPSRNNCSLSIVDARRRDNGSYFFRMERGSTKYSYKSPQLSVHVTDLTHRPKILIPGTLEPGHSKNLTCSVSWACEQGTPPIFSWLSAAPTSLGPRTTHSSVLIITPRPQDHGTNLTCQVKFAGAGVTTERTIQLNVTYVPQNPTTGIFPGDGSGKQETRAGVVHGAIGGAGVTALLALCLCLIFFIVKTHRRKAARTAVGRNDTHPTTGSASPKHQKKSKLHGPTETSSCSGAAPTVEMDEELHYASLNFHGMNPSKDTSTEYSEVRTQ
T6 sequence (P07766 23-126 limits assumed, chain 1 of 2): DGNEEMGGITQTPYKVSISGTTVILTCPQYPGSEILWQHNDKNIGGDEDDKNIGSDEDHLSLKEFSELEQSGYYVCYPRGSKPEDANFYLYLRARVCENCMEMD
T6 sequence (P04234 22-171 limits assumed, chain 2 of 2): as the sequence (Q95LI8 22-171 limits assumed, chain 2 of 2) above, with V5I, K15N, V20I, T32S, N33D, N34I, A64T, N74S, L83V, R141H counted along it

Row | Binder | MFI at 0 nM (background) (Human CD33 full length) | MFI at 0.6 nM (Human CD33 full length) | MFI at 6 nM (Human CD33 full length) | MFI at 60 nM (Human CD33 full length) | Kd (Human CD33 ECD-HSA) | koff (Human CD33 ECD-HSA) | kon (Human CD33 ECD-HSA) | Kd (Cyno CD33 ECD-HSA) | koff (Cyno CD33 ECD-HSA) | kon (Cyno CD33 ECD-HSA) | MFI at 0 nM (background) (Cyno CD33 full length) | MFI at 0.6 nM (Cyno CD33 full length) | MFI at 6 nM (Cyno CD33 full length) | MFI at 60 nM (Cyno CD33 full length) | % positive [1] | geomean [1] | % positive [2] | Rfu [2] | % positive [3] | Rfu [3]
1 | B1 | 112 MFI | 138000 MFI | 363000 MFI | 390000 MFI | 4.53 nM | 0.000989 s⁻¹ | 218000 M⁻¹ s⁻¹ | 0.0234 nM | 8.93e-05 s⁻¹ | 3.81e+06 M⁻¹ s⁻¹ | 114 MFI | 36200 MFI | 35700 MFI | 37500 MFI |  |  |  |  |  | 
2 | B2 | 185 MFI | 153000 MFI | 315000 MFI | 304000 MFI | 22.1 nM | 0.0098 s⁻¹ | 444000 M⁻¹ s⁻¹ | 0.44 nM | 0.000233 s⁻¹ | 529000 M⁻¹ s⁻¹ | 86.8 MFI | 22100 MFI | 33400 MFI | 45000 MFI |  |  |  |  |  | 
3 | B3 | 167 MFI | 193000 MFI | 404000 MFI | 448000 MFI | 0.655 nM | 0.000411 s⁻¹ | 627000 M⁻¹ s⁻¹ | 0.852 nM | 0.000403 s⁻¹ | 473000 M⁻¹ s⁻¹ | 104 MFI | 22800 MFI | 33300 MFI | 41000 MFI |  |  |  |  |  | 
4 | B4 |  |  |  |  |  |  |  |  |  |  |  |  |  |  | 72% | 199000 geometric mean fluorescence | 127% | 867 rfu | 66% | 320 rfu
5 | B5 |  |  |  |  |  |  |  |  |  |  |  |  |  |  | 53% | 148000 geometric mean fluorescence | 101% | 689 rfu | 47% | 230 rfu
6 | B6 |  |  |  |  |  |  |  |  |  |  |  |  |  |  | 72% | 199000 geometric mean fluorescence | 127% | 867 rfu | 66% | 320 rfu
7 | B7 |  |  |  |  |  |  |  |  |  |  |  |  |  |  | 77% | 215000 geometric mean fluorescence | 111% | 759 rfu | 70% | 340 rfu
8 | B8 |  |  |  |  |  |  |  |  |  |  |  |  |  |  | 3% | 7500 geometric mean fluorescence | 34% | 231 rfu | 25% | 121 rfu
9 | B9 |  |  |  |  |  |  |  |  |  |  |  |  |  |  | 53% | 148000 geometric mean fluorescence | 101% | 689 rfu | 47% | 230 rfu
10 | B10 |  |  |  |  |  |  |  |  |  |  |  |  |  |  | 66% | 182000 geometric mean fluorescence | 131% | 896 rfu | 76% | 371 rfu
